Measured values from patent US20150246947A1 (BAXALTA, published 2015).

Biological target: T1, human GAS6 (human, UniProt Q14393 49-678, limits assumed)
T1 construct: Immobilized on the Biacore chip; also called protein encoded by the Growth Arrest Specific-6 gene; anti-target
T1 sequence (looked up): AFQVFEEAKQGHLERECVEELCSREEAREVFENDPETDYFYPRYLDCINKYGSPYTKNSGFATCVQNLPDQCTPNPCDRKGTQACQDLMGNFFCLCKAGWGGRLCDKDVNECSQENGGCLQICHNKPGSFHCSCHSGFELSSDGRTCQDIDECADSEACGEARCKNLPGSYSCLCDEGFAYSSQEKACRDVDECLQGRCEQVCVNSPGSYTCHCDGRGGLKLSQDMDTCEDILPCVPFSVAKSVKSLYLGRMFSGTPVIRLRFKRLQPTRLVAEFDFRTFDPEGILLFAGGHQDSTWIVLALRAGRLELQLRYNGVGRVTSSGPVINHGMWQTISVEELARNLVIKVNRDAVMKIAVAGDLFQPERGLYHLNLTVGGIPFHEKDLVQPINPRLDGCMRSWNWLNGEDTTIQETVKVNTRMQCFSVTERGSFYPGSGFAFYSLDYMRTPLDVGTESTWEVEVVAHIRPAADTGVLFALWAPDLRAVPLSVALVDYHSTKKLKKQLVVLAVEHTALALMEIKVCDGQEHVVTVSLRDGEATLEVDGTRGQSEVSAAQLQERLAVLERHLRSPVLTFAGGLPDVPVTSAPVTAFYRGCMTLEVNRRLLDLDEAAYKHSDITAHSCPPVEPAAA
Assay: Biacore (SPR), GAS6 immobilized on the chip; sensorgrams reviewed visually
Method: Protein S affinity also was determined via Biacore (Biacore 3000 or Biacore T200) using human full-length Protein S and human GAS6. Briefly, 1000 RU of Protein S or GAS6 were immobilized on a CMS chip. In order to probe the kinetics of Protein S binding peptides to Protein S, the peptides were injected at various concentrations in a HBS-buffer containing 3 mM CaCl₂ and 1% DMSO to the flow cell and allowed to interact with the immobilized proteins on the sensor chip. The chip could be regenerated with 4 M MgCl₂ in HBS-buffer. Sensorgrams were fitted to a Langmuir binding model for the determination of kₒₙ and koff and the calculation of KD. Peptides were tested on their specificity to Protein S with peptide binding studies on the anti-target GAS6.
Interactions with the anti-target GAS6 were measured via Biacore (surface plasmon resonance) (see Example 2). The maximum signal from the interaction of the peptides with human GAS6 was much lower than the signals obtained with Protein S as interaction partner. Kinetic analysis of the low GAS6 binding signals was error prone, and sensorgrams were reviewed visually to estimate anti-target binding. […]

B1: JBS2572 (peptide)
peptide: Ac-TGLVSAGWYDYNFDHYREFT-NH2
notes: also called parent peptide JBS2572
binding result: no binding (tested: 1 µM)
